Three molecules from patent US20160362487A1 (Regeneron, published 2016) can be followed below.

In assay [1] the target is T1, pre-formed complex of hIL-33 and captured hST2-MMH (human, UniProt O95760 112-270).
T1 construct: Ligand-receptor complex on the sensor: hST2-MMH captured by anti-myc mAb and saturated with 100 nM hIL-33; also called hIL-33 pre-complexed with hST2-MMH
Description: SPR Biacore T-200, 25C. The method, then: The ability of anti-IL-33 antibodies to bind to a pre-formed complex of IL-33 with ST2 was tested using Biacore T-200 instrument equipped with a real-time surface plasmon resonance biosensor. The experiment was performed at 25° C. with a running buffer composed of 0.01M HEPES pH 7.4, 0.15M NaCl, 3 mM EDTA, and 0.05% v/v Surfactant Tween-20 (HBS-ET). […] The captured hST2-MMH surface was then saturated by injecting 100 nM of human IL-33 (hIL-33; R&D Systems, #3625-IL-010/CF) for 3 minutes followed by a 3 minute injection of a 100 nM solution of the anti-IL-33 monoclonal antibody. The real-time binding response was monitored during the entire course of the experiment, and the observed binding response at 3 minutes after injection of anti-IL-33 antibody to the pre-formed complex of hIL-33 and captured hST2-MMH was recorded and tabulated and shown in Table 7. No non-specific binding of anti-IL-33 monoclonal antibody to the anti-myc tag capture surface was observed.

Assay [2] deals with T2, human IL-33 (R&D Systems, #3625-IL-010/CF) (human, UniProt O95760 112-270).
T2 construct: Commercial recombinant protein; also called hIL-33; interleukin-33
T2 sequence (looked up): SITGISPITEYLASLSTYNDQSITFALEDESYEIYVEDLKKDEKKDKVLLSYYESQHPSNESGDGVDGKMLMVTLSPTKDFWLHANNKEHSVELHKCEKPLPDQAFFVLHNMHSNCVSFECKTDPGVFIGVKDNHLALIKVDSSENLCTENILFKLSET
Nature of the assay: SPR 25C pH7.4, mAb captured; lower limit, kd fixed. The method, then:
(§1) Equilibrium dissociation constants (KD values) for IL-33 binding to purified anti-IL-33 monoclonal antibodies were determined using a real-time surface plasmon resonance biosensor using a Biacore 4000 instrument. The Biacore sensor surface was first derivatized by amine coupling with either a polyclonal rabbit anti-mouse antibody (GE, # BR-1008-38) or with a monoclonal mouse anti-human Fc antibody (GE, # BR-1008-39) to capture anti-IL-33 monoclonal antibodies expressed with mouse or with human IgG4 constant regions, respectively. All Biacore binding studies were performed in 0.01M ADA pH 7.4, 0.15M NaCl, 3 mM EDTA, and 0.05% v/v Surfactant Tween-20 (ABS-ET running buffer). […] Association of either hIL-33 or MfIL-33-6His to the captured monoclonal antibody was monitored for 4 minutes and their dissociation in ABS-ET running buffer was monitored for 10 minutes. […] To achieve this, association of either hIL-33 or MfIL-33-6His to the captured monoclonal antibody was monitored for 4 minutes in ABS-ET running buffer. Following a 30 second dissociation of either hIL-33 or MfIL-33-6His in ABS-ET running buffer, ABS-ET pH6 buffer was injected for 3 minutes, and the analyte dissociation under the low-pH conditions was measured. […] Binding dissociation equilibrium constants (KD) and dissociative half-lives (t½) were calculated from the kinetic rate constants as: […]

Assay [3] has as its target T2, human IL-33 (R&D Systems, …). Description: SPR 25C pH7.4, mAb captured; upper limit, kd fixed. The protocol: as §1
The target is the same in assay [4]. Nature of the assay: SPR 25C pH7.4, mAb captured; no dissociation seen, kd fixed. The method, then:
as §1

Numbering of substitutions follows the chain as printed. In names and notes the source's numbering stands.

B1: H4H9662P (antibody, V domains shown)
VH: EVQLVESGGGLVQPGGSLRLSCAASGFTFSSYALTWVRQAPGKGLEWVSFISGSGGRPFYADSVKGRFTISRDNSKNMLYLQMNSLRAEDTAIYYCAKSLYTTSWYGGFDSWGQGTLVTVSS
VL: DIQMTQSPSSVSASVGDRVTITCRASQGVVSWLAWYQQKPGKAPKLLIYAASSLQSGVPSRFSGSGSGTDFTLTISSLQPEDFATYYCQQSNSFPFTLGPGTKVDIK
notes: Human IgG4 Fc (H4H)
In the case of B1, the binding result in assay [1] is reported as “no binding (tested: 100 nM)”.

B2: H4H9665P (antibody, human IgG4, V domains shown)
VH: EVQLVESGGGLVQPGGSLRLSCAASGFTFSNYAMTWVRQAPGKGLEWVSTISGSGDNTYYADSVQGRFTISRGHSKNTLYLQMNSLRAEDTAVYYCAKPTYSRSWYGAFDFWGQGTMVTVSS
VL: B1 VL with V29I, V30S, K45Q, S53R, S63W, S91A, S93N, L98F
notes: Human IgG4 Fc (H4H)
Consider B2, for which the binding result in assay [1] was “no binding (tested: 100 nM)”.

B3: H1M9566N (antibody, mouse IgG1, V domains shown)
VH: EVQLLESGGDLVQPGGSLRLSCAASGFTFSSYAMSWVRQAPGKGLEWVSVISGSGSSTDYADSVKGRFTISRDNSRDTLHLQMNSLRAEDTAVYYCAKTFYYFYGLDVWGQGTTVTVSS
VL: DIQMTQSPSSLSASLRDRVTITCRASQGISNYLAWYQQKPGKVPKVLIYAASTLQSGVPSRFSGSGSGTVFTLTISSLQTEDVATYYCQKYSSAPFTFGPGTKVDIK
notes: Human variable domains, mouse IgG1 Fc (H1M)
B3 yielded a t½ in assay [2] not below 1160 min. This molecule also came in with a Kd in assay [3] not above 0.0788 nM. The koff in assay [4] is not above 1e-05 s⁻¹.
